Biological target: Human ACE2 with Fc tag (human) (UniProt Q9BYF1)
Assay: SPR

Chain of Human ACE2 with Fc tag (human) (Q9BYF1 18-740): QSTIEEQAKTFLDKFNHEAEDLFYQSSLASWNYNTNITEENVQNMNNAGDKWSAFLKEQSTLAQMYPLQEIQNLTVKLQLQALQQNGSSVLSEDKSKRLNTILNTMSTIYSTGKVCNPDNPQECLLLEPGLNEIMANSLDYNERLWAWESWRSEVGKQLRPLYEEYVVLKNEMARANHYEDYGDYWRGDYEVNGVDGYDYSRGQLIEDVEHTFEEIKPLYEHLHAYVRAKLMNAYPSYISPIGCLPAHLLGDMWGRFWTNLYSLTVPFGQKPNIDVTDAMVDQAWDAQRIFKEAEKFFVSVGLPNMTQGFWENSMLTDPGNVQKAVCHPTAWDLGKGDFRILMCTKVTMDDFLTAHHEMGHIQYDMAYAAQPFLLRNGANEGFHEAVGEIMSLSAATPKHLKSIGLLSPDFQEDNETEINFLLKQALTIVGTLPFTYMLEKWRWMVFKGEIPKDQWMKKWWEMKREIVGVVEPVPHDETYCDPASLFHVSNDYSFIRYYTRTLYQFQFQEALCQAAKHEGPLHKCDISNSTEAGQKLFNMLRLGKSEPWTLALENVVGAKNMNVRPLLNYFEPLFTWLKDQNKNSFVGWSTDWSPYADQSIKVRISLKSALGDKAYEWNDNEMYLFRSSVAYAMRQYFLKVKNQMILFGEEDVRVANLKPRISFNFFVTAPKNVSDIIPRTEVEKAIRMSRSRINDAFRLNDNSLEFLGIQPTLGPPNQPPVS

Substance: WT RBD
- Kd: 16 nM
- koff: 0.0051 s⁻¹
